From US20250188133A1, “CHIMERIC BACTERIOCINS AND METHOD FOR THE CONTROL OF PSEUDOMONAS” (priority 2022, published 2025) come the findings set out here.

For one assay, the system named is P. aeruginosa PAO1. The assay is described as follows: ex vivo porcine corneas as model for bacterial keratitis. In kind it is cell-based. The following applies: 5 μg applied 16-20 h after colonization, further 16-20 h incubation. The protocol:
(§1) Preparation of porcine corneas. Porcine eyes were acquired from the nearest slaughterhouse. Enucleated eyes were stored at −70° C. Before the start of experiment, eyes were transferred to 4° C. for 1 hour, then to room temperature for 1-2 hours until the eyeballs were completely defrosted. Then eyeballs were individually placed in sterile plastic containers and submerged for 5 min in 2.5% Povidone-iodine (Betadine 100 mg/ml; EGIS Pharmaceuticals PLC), then twice washed with sterile PBS. The corneas were excised with sterile surgical blade No. #12. The excised corneas were stored in Minimum Essential Medium (MEM) supplemented with Non-Essential Amino Acids, L-Glutamine (2 mM), penicillin (200 U/ml)+spectinomycin (25 μg/ml) until further use at 4° C. up to two weeks.
(§2) Cornea infection and pyocin treatment. P. aeruginosa was grown overnight from frozen stock. Next morning, the culture was diluted 100 fold by fresh LB medium, and grown until OD595=˜0.6 (˜6 hours). Bacteria were collected by centrifugation and re-suspended in PBS. The dissected corneas were placed on agarose-gelatin (0.5% each) solid support in a 6-well culture plate containing 800 μL MEM with antibiotics (100 U/ml penicillin, 25 μg/ml spectinomycin), then three horizontal and 3 vertical scratches were made using a sterile 25 gauge needle. 3×10^4 CFU of P. aeruginosa ATCC 19660 strain or 0.4×10^4 CFU of PAO1 strain were applied to cornea and incubated for 16-20 hours in 37° C. CO2 incubator ([…]). 5 corneas were used for each experimental point. After incubation with P. aeruginosa, the corneas were visually inspected for opacity. The corneas which were clear and without signs of infection were considered as non-infected and discarded from further study. 5 μg of S5-PmnH (in 5 μl of PBS) or 5 μl of PBS were applied to infected corneas and incubated for additional 16-20 hours in 37° C. CO2 incubator.
(§3) Homogenization and CFU counting. Prior the homogenization the corneas were washed 3 times for 10 min in 50 ml sterile PBS with occasional agitation. Each cornea was chopped in 4 equal parts, trying to get rid of sclera. […]

The subject of another assay is P. aeruginosa ATCC 19660. The assay is described as above. Conditions: 5 μg applied 16-20 h after colonization, further 16-20 h incubation. In kind it is cell-based. The protocol:
as §1, §2, §3

The test system of a further assay is P. aeruginosa ATCC 27853. Briefly: murine lung colonization and treatment (CD1 mice). In kind it is in vivo. Conditions: 5 h post infection. The protocol:
CD1 male mice were supplied by Charles River (Margate, UK) and were specific pathogen free. Mice were 11 to 15 g on receipt at the facility and were allowed to acclimatize for at least 7 days.
P. aeruginosa ATCC 27853 was recovered from long-term storage (−80° C.) and cultured on cystine-lactose-electrolyte-deficient (CLED) agar at 37° C. under aerobic conditions for approximately 16-24 h. 20 ml of Mueller Hinton broth was inoculated with a single well isolated colony and cultured overnight at 37° C. with shaking at 300 rpm65. The overnight broth was diluted 1:100 in Mueller Hinton broth and 100 ml was cultured in a baffle flask for ˜6 h at 37° C. with shaking at 300 rpm until the broth OD was ˜0.6 (˜mid-exponential phase). 20 ml of culture was centrifuged at 2465 g for 10 minutes and washed in PBS. The pellet was suspended in PBS and the OD600 adjusted to 0.67 (˜2.6×10^8 CFU/ml). The study inoculum was prepared from this by appropriate dilution with PBS. The inoculum concentration was confirmed by quantitative culture on Pseudomonas Selective Agar (PSA). The inoculum concentration for the study was 1.47×10^7 CFU/ml (5.87×10^5 CFU/mouse).
Mice were infected under temporary inhaled 3% isoflurane anesthesia by intranasal (IN) instillation with 40 μl of the inoculum suspension split as 20 μl/nostril.
1 hour post infection 6 mice were sacrificed in order to evaluate the pre-treatment burden in lungs. Treatments were administered IN once at 1 h post infection (50 μl split to 25 μl/nares). Three treatment groups consisting of six mice each were administered S5-PmnH (2.5, 25 and 250 μg). The fourth group of mice (n=6) was administered 200 μg Tobramycin (40 mg/ml injection solution, Hospira UK Ltd, diluted 10 times). The study was terminated at 5 hours post infection for all animals. The clinical conditions and weights were assessed and animals were immediately euthanized using an overdose of pentobarbitone. Following confirmation of death, the lungs were excised and homogenized in ice cold sterile phosphate buffered saline using a Precellys bead beater. The homogenates were quantitatively cultured onto PSA agar and incubated at 37° C. for 24 hours before colonies were counted.

B1: S5-PmnH (protein)
chain: MSNDNEVPGSMVIVAQGPDDQYAYEVPPIDSAAVAGNMFGDLIQREIYLQKNIYYPVRSIFEQGTKEKKEINKKVSDQVDGLLKQITQGKREATRQERVDVMSAVLHKMESDLEGYKKTFTKGPFIDYEKQSSLSIYEAWVKIWEKNSWEERKKYPFQQLVRDELERAVAYYKQDSLSEAVKVLRQELNKQKALKEKEDLSQLERDYRTRKANLEMKVQSELDQAGSALPPLVSPTPEQWLERATRLVTQAIADKKQLQTTNNTLIKNSPTPLEKQKAIYNGELLVDEIASLQARLVKLNAETTRRRTEKELTPDEKAAYTDAVSFVSTANEQMLQKYGANLSKVAQDMQAEIAGKKVRSYAEAMATFEKISANPAMKLNALDTQAVVDALNALDKASFADNITRLGKAFGVVGKVVQAEAIREKTVSGFQTGDWKPLMLELEAMAVGTGAGILLATSMAFFFPVFASAAAGVVVVALMMAATAAYFDAAKVDEINNLILN
modifications: Chimeric S5-PmnH
Take B1: in the assay with P. aeruginosa PAO1, the “burden in treated corneas (average)” value came out at 10 CFU per cornea. Besides, the “reduction of burden vs untreated corneas” value with P. aeruginosa PAO1 turned out to be 6.6 log10. Further, in the assay with P. aeruginosa ATCC 19660, the “reduction of CFU number” value is reported as 5.3 log10. Further, the “reduction of lung burden vs vehicle” value in the assay with P. aeruginosa ATCC 27853 (2.5 μg/mouse IN once 1 h post infection) is on record as 2.1 log10 CFU/g; with P. aeruginosa ATCC 27853 (25 μg/mouse IN once 1 h post infection), 2.31 log10 CFU/g; with P. aeruginosa ATCC 27853 (250 μg/mouse IN once 1 h post infection), 2.66 log10 CFU/g. The “reduction of burden below the level of stasis (pre-treatment)” value was determined as 0.58 log10 CFU/g in the assay with P. aeruginosa ATCC 27853 (2.5 μg/mouse IN once), 0.78 log10 CFU/g with P. aeruginosa ATCC 27853 (25 μg/mouse IN once) and 1.13 log10 CFU/g in the assay on P. aeruginosa ATCC 27853 (250 μg/mouse IN once).
